Measurements from patent publication US7871782B2, “Specific binding members against synaptophysin” (The University Court of the University of Aberdeen, priority 2004, dated 2011).

Legend:
HSCs = assay: Effect of scAb incubation on HSC viability (attachment, protein assay); assay type: cell-based, human; conditions: 3 hours incubation, 5 μg scAb or indicated chemical, FIG. 12
Experimental: Effect of scAb incubation on HSC viability. HSCs seeded into 24 well plates were incubated in 0.3 mls culture medium containing 5 μg scAb or the indicated-chemical. Cells were incubated for 3 hours prior to removal of medium and washing with 1×PBS. Attachment (as a measure of viability) was determined by a direct protein assay in the culture wells.

human HSCs [1] = assay: Fluorescence microscopy without fixation: effect of peptides and monensin on FITC-C1-3 scAb binding; assay type: cell-based; conditions: monensin 2.5 and 15 μM; for effect on FITC-C1-3 association/binding to HSCs: added with 10 μg FITC-C1-3 scAb, peptides 0.25-25 nmoles, FIG. 13
Experimental: Effect of synaptophysin peptides and monensin on FITC-C1-3 scAb binding to human HSCs. Human HSCs seeded into 24 well plates were washed and incubated in 500 μl Hepes/HBSS per well for 1 hour containing either: 10 μg C1-3 scAb; 10 μg FITC-C1-3 scAb; 10 μg FITC-C1-3 scAb and 0.25 nmoles of the target peptide; 10 μg FITC-C1-3 scAb and 2.5 nmoles of the target peptide; 10 μg FITC-C1-3 scAb and 25 nmoles of the target peptide; 10 μg FITC-C1-3 scAb and 25 nmoles of the target peptide P1; 10 μg FITC-C1-3 scAb and 2.5 μM monensin; 10 μg FITC-C1-3 scAb and 15 μM monensin; 10 μg FITC-3A8 scAb (scAb raised to microcystin and not expected to bind to HSCs). Cells incubated with monensin were preincubated for 10 minutes. Just prior to addition of scAb, the medium was changed and cells were re-dosed with monensin. […] Bar=μm. Monen=monensin; P1=the […] peptide (SEQ ID NO 27); P2=the target peptide.
HSCs seeded into 24 well plates were washed with Hepes/HBSS and then incubated at 37° C. in 500 μl/well Hepes/HBSS containing 10 μg scAb with or without additional compounds. After 1 hour, the cells were washed 3 times with 500 μl Hepes/HBSS. Cells were analysed using an Axiovert 100 microscope (Zeiss, Germany) using filter set #9 (BP 450-490 nm; LP 515 nm).

human hepatocytes = assay: Fluorescence microscopy of FITC-labelled scAb with cells; assay type: cell-based
Experimental: (§1) FITC-C1-3 scAb was tested for its ability to interact with hepatic stellate cells in culture by fluorescence microscopy. Human hepatic stellate cells were seeded (1×10^3 cells per chamber) on chamber slides (Nunclon, Naperville) in complete medium prior to experimentation. Cells were washed twice in phosphate buffered saline (PBS) and incubated in 500 μl Hepes/HBSS buffer (0.14M NaCl, 5.4 mM KCl, 0.34 mM Na2HPO4, 0.94 mm KH2PO4, 5.6 mM glucose, 1 mM CaCl2, 6 mM HEPES, 4 mM NaHCO3 pH7.4) containing 10 μg scAb or FITC-C1-3 scAb for 1 h at room temperature in the dark. The cells were then washed in PBS and mounted with Vectashield mounting medium (Vector laboratories, Burlingame, Calif.) containing 4′,6′ diamindino-2 phenylindole (DAPI) to stain cell nuclei and coverslips applied. Florescence microscopy was carried out using a Zeiss Axeola II microscope with a Photometrics Sensis camera, and data captured using the Smart Capture programme. Human hepatocytes (UK Human Tissue Bank) were originally cultured in a collagen-coated 24 well plate (1×10^5/well) and maintained in William's medium E supplemented with 80 units/ml penicillin and 80 μg/ml streptomycin.

[2] = system: human hepatic stellate cells; assay: as above; assay type: cell-based; conditions: 10 μg scAb, 1 h, room temperature
Experimental: as §1

COS-7 cells = assay: Fluorescence binding to cells; assay type: cell-based
human HSCs [3] = assay: Uptake of scAb and conjugates by human HSCs in culture (Western blot of medium); assay type: cell-based; conditions: 5 μg scAb in 0.3 mls medium, FIG. 11
Experimental: Uptake of C1-3 scAb and C1-3-conjugates by human HSCs in culture. HSCs seeded into 24 well plates were incubated in 0.3 mls culture medium containing 5 μg scAb. Samples of medium were taken at the indicated times and subjected to Western blotting to detect scAb using HRP-conjugated anti-human Cκ light chain antibody (UPPER PANEL) and serum albumin (LOWER PANEL) as a loading control. Results typical of 4 separate experiments.

HepG2 cells = assay: Fluorescence binding to cells; assay type: cell-based
[4] = system: hepatic stellate cell and hepatocytes co-cultured; assay type: cell-based, human
Experimental: For co-culture experiments, hepatic stellate cells were seeded into hepatocytes cultures (1×10^3 cells per well) and cultured for 24 h prior to experimentation. The C1-3 or FITC-C1-3 scAb was incubated as outlined for pure hepatic stellate cell cultures except that after 1 hour incubation and washing, the cells were harvested by trypsinisation and centrifugation at 1000 rpm for 5 min. The cell pellet was then resuspended in 0.4% formaldehyde/10^6 cells, applied onto glass slides by cytocentrifugation and mounted with Vectashield containing DAPI. Slides were viewed by fluorescence microscopy as before.

[5] = target: T1, synaptophysin in rat HSCs (Rattus norvegicus, UniProt P07825); assay: Western analysis of cell extracts probed with C1-3 scAb; assay type: binding; conditions: rat HSC extract, FIG. 8
T1 construct: endogenous in cells; host or cells: rat hepatic stellate cells
Experimental: (§2) Western blot showing the binding of C1-3 scAb to the target peptide. Cell extracts (5 μg/lane) were subjected to Western blotting and membranes probed with C1-3 scAb followed by incubation with HRP conjugated anti-human Cκ light chain antibody and detection using ECL reagent. rHSCs—rat hepatic stellate cells; hHSCs—human hepatic stellate cells (AH4=anonymous patient code); rHCs—rat hepatocytes; B13—rat pancreatic stem cell; B13-H—rat pancreatic stem cell after trans-differentiation into an hepatocyte.
(§3) Western blotting was performed essentially as described in Wright M. C. et al. Mol Pharmacol 1996; 50:856-63.

[6] = target: T2, synaptophysin in human HSCs (Homo sapiens, UniProt P08247); assay: as above; assay type: binding; conditions: human HSC extract, FIG. 8
T2 construct: endogenous in cells; host or cells: human hepatic stellate cells (patient-derived, AH4)
Experimental: as §2, §3

[7] = target: T3, peptide YPFRLHQVYFDAPSC (SEQ ID NO 9) (Homo sapiens, UniProt P08247); assay: Expressed purified anti-peptide scAb ELISA; assay type: binding
T3 construct: host or cells: chemical synthesis (Fmoc), no expression host
Experimental: Expressed scAb was tested for its ability to interact with the peptide […] (SEQ ID NO: 9) by ELISA using anti-BSA-target peptide scAb. Wells of a 96 well plate were coated with BSA-target peptide or BSA and incubated with either C1-3 scAb (grey bars) or control scAb incubation buffer (clear bars) followed by extensive washing. Bound scAb was detected using the HRP conjugated anti-human Cκ light chain antibody and quantitated as outlined in methods section. Data are the mean and standard deviation of 3 separate determinations. ‘BSA-peptide 2’ is the target peptide.
(§4) Purified polyclonal phage enriched for binders to peptides were assayed by ELISA using flat bottomed 96-well Immulon-4 microtitre plates (Dynex, Sussex, UK) coated with 2 μg/well protein (peptide-BSA or BSA) in PBS overnight at 4° C. Bound phage were detected by incubation with 100 μl/well horseradish peroxidase (HRP) conjugated anti-M13 antibody (AmershamPharmacia) for 1 h, washing, and incubation with 100 μl/well tetramethylbenzidine dihydrochloride solution (KPL Laboratories, Gaithersburg, Md.). Reactions were stopped with 50 μl/well 1M H2SO4, and the absorbance at 450 nm read using a microtitre plate reader.
Expressed scAb was tested for its ability to interact with peptide by ELISA essentially as outlined for polyclonal anti-peptide phage-antibody ELISAs. […]

target peptide-BSA = target: T4, target peptide-BSA (Homo sapiens, UniProt P08247); assay: Monoclonal phage-antibody ELISA; assay type: binding; conditions: FIG. 3
T4 construct: host or cells: chemical synthesis (Fmoc), no expression host
Experimental: C1-phage antibody clone (monoclonal) assayed for binding to the target peptide-BSA as outlined for FIG. 2.
as §4
Individual colonies from pan 3 were grown in 96 well plates (Greiner) and phage-antibodies rescued with M13 KO7.
Specificity of phage supernatants for binding to peptide-BSA and BSA alone was determined by ELISA. The scFv encoding regions of positive clones were subcloned in to the expression vector pIMS147. This is a modification of the IPTG (isopropyl-β-D-thiogalactopyranoside) inducible pUC based vector pIMS100 (Hayhurst A. et al. Protein Expr Purif 1999; 15:336-43). The addition of a hexa-histadine tag permits purification of the expressed scAb by immobilised metal ion chelate affinity chromatography. Vectors were transformed into E. coli TG1 or XL1 blue cells.

T1 sequence (P07825 whole entry): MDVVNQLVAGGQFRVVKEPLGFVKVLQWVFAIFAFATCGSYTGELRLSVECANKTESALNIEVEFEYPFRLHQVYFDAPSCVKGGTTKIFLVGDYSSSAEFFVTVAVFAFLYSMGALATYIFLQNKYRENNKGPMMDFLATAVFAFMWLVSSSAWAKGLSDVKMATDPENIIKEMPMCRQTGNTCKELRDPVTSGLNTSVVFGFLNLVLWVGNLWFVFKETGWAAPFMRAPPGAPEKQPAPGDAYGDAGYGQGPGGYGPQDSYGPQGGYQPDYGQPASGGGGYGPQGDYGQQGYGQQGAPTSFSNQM
T2 sequence (P08247 whole entry): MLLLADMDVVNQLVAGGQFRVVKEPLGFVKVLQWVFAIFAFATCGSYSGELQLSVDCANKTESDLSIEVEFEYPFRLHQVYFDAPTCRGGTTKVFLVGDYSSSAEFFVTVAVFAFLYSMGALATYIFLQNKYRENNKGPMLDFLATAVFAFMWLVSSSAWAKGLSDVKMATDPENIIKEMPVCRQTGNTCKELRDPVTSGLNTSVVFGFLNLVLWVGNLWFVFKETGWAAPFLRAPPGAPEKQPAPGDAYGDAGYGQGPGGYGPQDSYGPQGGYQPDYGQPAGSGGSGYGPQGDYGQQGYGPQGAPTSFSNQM

For CN(C)CCCN1c2ccccc2Sc2ccc(Cl)cc21 [chlorpromazine], the “toxicity to HSCs (attachment as measure of viability)” value (HSCs) was “kill HSCs”.

For “YPFRLHQVYFDAPSC (listed as Homo sapiens) [C1-3 antigen]”, the “effect on FITC-C1-3 association/binding to HSCs” value (human HSCs [1]) was “decreased FITC-C1-3 binding to HSCs in a dose-dependent manner”.

For ATDPENIIKEMPMC (listed as Homo sapiens), the “effect on FITC-C1-3 association/binding to HSCs” value (human HSCs [1]) was “did not significantly inhibit”.

With CC[C@@]1([C@@H]2O[C@@H]([C@H]3O[C@@](O)(CO)[C@H](C)C[C@@H]3C)C[C@@H]2C)CC[C@H]([C@]2(C)CC[C@]3(C[C@H](O)[C@@H](C)[C@@H]([C@@H](C)[C@@H](OC)[C@H](C)C(=O)O)O3)O2)O1 [monensin] the “effect on FITC-C1-3 association/binding to HSCs” value (human HSCs [1]) was “did not inhibit the total number of cells stained” and the “effect on FITC-C1-3 uptake (nuclear FITC-C1-3 staining)” value (human HSCs [1]; 10 minutes preincubation) was “reduced uptake”.

With “FITC-BSA: FITC labelled bovine serum albumin, specificity control [reference compound]” the “green fluorescence associated with human hepatocytes” value (human hepatocytes) was “displayed cytoplasmic foci of fluorescence” and the “green fluorescence associated with hepatic stellate cells” value [2] was “displayed cytoplasmic foci of fluorescence”.

B1: C1-3 scAb: human single-chain antibody fragment with human Cκ domain and His tag, specific for synaptophysin peptide …; amino acid sequence SEQ ID NO 8 (protein)
scFv: MAEVQLLESGGGLVQPGGSLRLSCAASGFTFSSYAMSWVRQAPGKGLEWVSTIAASGPSTGYADSVKGRFTISRDNSKNTLYLQMNSLRAEDTAVYYCAKTTAKFDYWGQGTLVTVSSGGGGSGGGGSGGGGSTDIQMTQSPSSLSASVGDRVTITCRASQSISSYLNWYQQKPGKAPKLLIYSASRLQSGVPSRFNGSGSGTDFTLTISSLQPEDFATYYCQQLQRKPTTFGQGTKVEIKRGAAAPSVFIF
modifications: human Cκ domain and His tag; C1-3 amino acid sequence
B1 was tested, and the “fluorescence binding to COS-7 cells” value (COS-7 cells) was “not detected”, the “association with HSCs: change of culture medium concentration of scAb” value (human HSCs [3]) was “reduction in culture medium concentrations” and the “fluorescence binding to HepG2 cells” value (HepG2 cells) was “not detected”. The “green fluorescence in hepatic stellate cell/hepatocyte co-cultures” value [4] was “No significant green fluorescence”, the “cross-reaction with synaptophysin in rat HSCs” value [5] was “did not cross-react” and the “size of protein bound by scAb in Western analysis” value [6] was ~32 kDa. The “scAb bound to peptide-BSA relative to BSA alone” value ([7]; ELISA, FIG. 7) was “approximately 8 times”, the “recognition of the peptide in ELISA” value ([7]; expressed scAb from XL-1 blue E coli) was “specifically recognised the peptide” and the “green fluorescence associated with human hepatocytes” value (human hepatocytes) was “no associated green fluorescence”. For the same molecule, the “green fluorescence associated with hepatic stellate cells” value [2] was “No detectable green fluorescence”.

B2: C1: monoclonal phage-antibody clone from pan 3 of Tomlinson I+J libraries, subcloned to give C1-3 scAb (protein)
scFv: MAEVQLLESGGGLVQPGGSLRLSCAASGFTFSSYAMSWVRQAPGKGLEWVSTIAASGPSTGYADSVKGRFTISRDNSKNTLYLQMNSLRAEDTAVYYCAKTTAKFDYWGQGTLVTVSSGGGGSGGGGSGGGGSTDIQMTQSPSSLSASVGDRVTITCRASQSISSYLNWYQQKPGKAPKLLIYSASRLQSGVPSRFNGSGSGTDFTLTISSLQPEDFATYYCQQLQRKPTTFGQGTKVEIKRGAAA
In the case of B2, the “binding response in monoclonal phage-antibody ELISA” value (target peptide-BSA) is reported as “good binding response”.
